Earlier results in publication PMC10810742.

Biological target: Ubiquitin (Homo sapiens) (UniProt P0CG47)

Sequence of CteC (Q7NY09 whole entry): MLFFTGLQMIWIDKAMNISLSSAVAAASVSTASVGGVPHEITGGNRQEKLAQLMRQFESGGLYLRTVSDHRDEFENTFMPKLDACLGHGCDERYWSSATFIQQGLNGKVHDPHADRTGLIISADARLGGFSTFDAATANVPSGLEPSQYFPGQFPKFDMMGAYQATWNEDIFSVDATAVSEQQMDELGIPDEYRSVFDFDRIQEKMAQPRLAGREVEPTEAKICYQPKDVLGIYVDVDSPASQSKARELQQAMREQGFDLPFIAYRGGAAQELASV

Substance: CteC (from UniProt Q7NY09)
- Kd: 78.7 µM
